Experimental data published in FireProtDB (doi:10.1093/protein/12.3.251).

B1: Endo-1,4-beta-xylanase A, P26514 (parent)
chain: MGSYALPRSGVRRSIRVLLLALVVGVLGTATALIAPPGAHAAESTLGAAAAQSGRYFGTAIASGRLSDSTYTSIAGREFNMVTAENEMKIDATEPQRGQFNFSSADRVYNWAVQNGKQVRGHTLAWHSQQPGWMQSLSGSALRQAMIDHINGVMAHYKGKIVQWDVVNEAFADGSSGARRDSNLQRSGNDWIEVAFRTARAADPSAKLCYNDYNVENWTWAKTQAMYNMVRDFKQRGVPIDCVGFQSHFNSGSPYNSNFRTTLQNFAALGVDVAITELDIQGAPASTYANVTNDCLAVSRCLGITVWGVRDSDSWRSEQTPLLFNNDGSKKAAYTAVLDALNGGDSSEPPADGGQIKGVGSGRCLDVPDASTSDGTQLQLWDCHSGTNQQWAATDAGELRVYGDKCLDAAGTSNGSKVQIYSCWGGDNQKWRLNSDGSVVGVQSGLCLDAVGNGTANGTLIQLYTCSNGSNQRWTRT

Variants of: B1
Settings: Streptomyces lividans; pH 6; Thermal; CD; sodium phosphate 10 mM; structure 1XAS; whole UniProt chain shown

Variant | Tm [°C] | change of melting temperature, mutant - wild type (higher = more stable) [°C]
W126A | 70 | 2
W126F | 64 | -4
W126H | 67 | -1
Y213A | 63 | -5
Y213F | 67.1 | -0.9
Y213S | 69.6 | 1.6
W307A | 63.3 | -4.7
W307F | 64.7 | -3.3
W307H | 60.7 | -7.3
W315A | 72.1 | 4.1
W315F | 68.8 | 0.8
W315H | 68.2 | 0.2
